To fix the notation:
B1: Chromosomal replication initiator protein DnaA (Escherichia coli (strain K12)), P03004 (parent)
chain: MSLSLWQQCLARLQDELPATEFSMWIRPLQAELSDNTLALYAPNRFVLDWVRDKYLNNINGLLTSFCGADAPQLRFEVGTKPVTQTPQAAVTSNVAAPAQVAQTQPQRAAPSTRSGWDNVPAPAEPTYRSNVNVKHTFDNFVEGKSNQLARAAARQVADNPGGAYNPLFLYGGTGLGKTHLLHAVGNGIMARKPNAKVVYMHSERFVQDMVKALQNNAIEEFKRYYRSVDALLIDDIQFFANKERSQEEFFHTFNALLEGNQQIILTSDRYPKEINGVEDRLKSRFGWGLTVAIEPPELETRVAILMKKADENDIRLPGEVAFFIAKRLRSNVRELEGALNRVIANANFTGRAITIDFVREALRDLLALQEKLVTIDNIQKTVAEYYKIKVADLLSKRRSRSVARPRQMAMALAKELTNHSLPEIGDAFGGRDHTTVLHACRKIEQLREESHDIKEDFSNLIRTLSS
partner: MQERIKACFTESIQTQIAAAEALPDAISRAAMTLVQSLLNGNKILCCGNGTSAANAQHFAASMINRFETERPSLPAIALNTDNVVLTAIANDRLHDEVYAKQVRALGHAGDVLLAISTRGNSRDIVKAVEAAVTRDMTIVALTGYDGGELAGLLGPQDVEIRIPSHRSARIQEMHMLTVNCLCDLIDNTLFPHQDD

Variants of B1 are the subject of the test. To be noted: with diaa_ecoli diaA.
As for MSLSLWQQCLARLQDELPATAFSMWIRPLQAELSDNTLALYAPNRFVLDWVRDKYLNNINGLLTSFCGADAPQLRFEVGTKPVTQTPQAAVTSNVAAPAQVAQTQPQRAAPSTRSGWDNVPAPAEPTYRSNVNVKHTFDNFVEGKSNQLARAAARQVADNPGGAYNPLFLYGGTGLGKTHLLHAVGNGIMARKPNAKVVYMHSERFVQDMVKALQNNAIEEFKRYYRSVDALLIDDIQFFANKERSQEEFFHTFNALLEGNQQIILTSDRYPKEINGVEDRLKSRFGWGLTVAIEPPELETRVAILMKKADENDIRLPGEVAFFIAKRLRSNVRELEGALNRVIANANFTGRAITIDFVREALRDLLALQEKLVTIDNIQKTVAEYYKIKVADLLSKRRSRSVARPRQMAMALAKELTNHSLPEIGDAFGGRDHTTVLHACRKIEQLREESHDIKEDFSNLIRTLSS [E21A], the “effect of a mutation on the interaction” value is on record as “decreasing interaction”.

With MSLSLWQQCLARLQDELPATEFSMWIRPLQAELSDNTLALYAPNRAVLDWVRDKYLNNINGLLTSFCGADAPQLRFEVGTKPVTQTPQAAVTSNVAAPAQVAQTQPQRAAPSTRSGWDNVPAPAEPTYRSNVNVKHTFDNFVEGKSNQLARAAARQVADNPGGAYNPLFLYGGTGLGKTHLLHAVGNGIMARKPNAKVVYMHSERFVQDMVKALQNNAIEEFKRYYRSVDALLIDDIQFFANKERSQEEFFHTFNALLEGNQQIILTSDRYPKEINGVEDRLKSRFGWGLTVAIEPPELETRVAILMKKADENDIRLPGEVAFFIAKRLRSNVRELEGALNRVIANANFTGRAITIDFVREALRDLLALQEKLVTIDNIQKTVAEYYKIKVADLLSKRRSRSVARPRQMAMALAKELTNHSLPEIGDAFGGRDHTTVLHACRKIEQLREESHDIKEDFSNLIRTLSS [F46A], the “effect of a mutation on the interaction” value is listed as “disrupting interaction”.

The values above are taken from IntAct's records for PubMed 19632993.
